Experimental data published in patent publication US20250206841A1 (ADEPT THERAPEUTICS, published 2025).
Residue numbers refer to the chain shown, from its start.

T1: human Trop-1 (EpCAM) (human, UniProt P16422 24-265, limits assumed)
T1 sequence (looked up): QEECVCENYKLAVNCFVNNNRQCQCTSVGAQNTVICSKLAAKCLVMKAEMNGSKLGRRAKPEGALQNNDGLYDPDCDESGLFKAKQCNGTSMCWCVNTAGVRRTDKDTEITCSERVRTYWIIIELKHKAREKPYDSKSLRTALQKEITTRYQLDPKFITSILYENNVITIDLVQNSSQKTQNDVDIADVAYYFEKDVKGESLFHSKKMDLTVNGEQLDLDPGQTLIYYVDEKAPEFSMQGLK

T2: mouse Trop-2 (mouse, UniProt Q8BGV3 25-270, limits assumed)
T2 construct: also called Kactus Cat #TRP-MM121
T2 sequence (looked up): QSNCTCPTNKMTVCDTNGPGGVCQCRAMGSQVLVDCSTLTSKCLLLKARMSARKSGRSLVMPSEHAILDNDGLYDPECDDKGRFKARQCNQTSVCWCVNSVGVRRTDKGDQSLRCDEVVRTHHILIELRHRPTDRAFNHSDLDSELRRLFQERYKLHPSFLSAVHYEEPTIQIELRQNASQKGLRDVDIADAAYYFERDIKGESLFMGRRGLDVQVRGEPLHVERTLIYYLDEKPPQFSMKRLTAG

T3: rat Trop-2 (rat, UniProt Q6P9Z6 25-270, limits assumed)
T3 sequence (looked up): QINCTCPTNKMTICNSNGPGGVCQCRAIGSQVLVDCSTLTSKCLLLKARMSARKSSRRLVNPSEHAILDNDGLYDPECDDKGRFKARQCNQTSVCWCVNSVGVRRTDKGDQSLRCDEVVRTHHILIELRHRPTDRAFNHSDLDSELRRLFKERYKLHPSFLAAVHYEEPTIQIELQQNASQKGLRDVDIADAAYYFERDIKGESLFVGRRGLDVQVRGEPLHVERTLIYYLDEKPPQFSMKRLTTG

T4: human Trop-2 expressed on cell surface (human, UniProt P09758 27-323)
T4 sequence (looked up): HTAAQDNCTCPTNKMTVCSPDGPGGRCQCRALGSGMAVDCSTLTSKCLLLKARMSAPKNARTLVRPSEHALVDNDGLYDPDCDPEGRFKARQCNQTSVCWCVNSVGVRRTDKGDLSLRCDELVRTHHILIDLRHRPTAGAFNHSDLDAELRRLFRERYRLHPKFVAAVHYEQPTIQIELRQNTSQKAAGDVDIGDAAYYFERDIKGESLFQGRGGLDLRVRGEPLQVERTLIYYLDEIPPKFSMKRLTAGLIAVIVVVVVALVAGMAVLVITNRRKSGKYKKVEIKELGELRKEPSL

T5: human Trop-2-His protein (human, UniProt P09758 27-274)
T5 construct: extracellular domain; Assay paragraphs say only 'Trop-2-His'; also called hTrop-2; Kactus Cat #TRP-HM121; not shown: His tag
T5 sequence (looked up): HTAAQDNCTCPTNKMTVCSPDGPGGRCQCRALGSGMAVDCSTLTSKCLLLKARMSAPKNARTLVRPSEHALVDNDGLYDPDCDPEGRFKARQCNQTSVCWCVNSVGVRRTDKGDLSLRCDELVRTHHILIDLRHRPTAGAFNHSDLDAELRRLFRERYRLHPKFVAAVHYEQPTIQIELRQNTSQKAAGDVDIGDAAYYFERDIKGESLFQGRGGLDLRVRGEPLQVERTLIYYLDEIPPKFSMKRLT

T6: cynomolgus Trop-2-His protein (cynomolgus, UniProt P09758 27-274 (human entry))
T6 construct: also called cynmolgus Trop-His; Kactus Cat #TRP-CM121; not shown: His tag
T6 chain: T5 sequence (looked up) with M36V, S67N, G139S, I204V

B1: 9D7 (antibody, V domains shown)
VH: QSLEESGGDLVQPGASLTLTCKASGFDLNNYSILWVRQAPGKGLEWIGCIYISGGSTYYANWAKGRFAISKTSSTTVTLQMTSLTAADTATYFCARDDGTASYYLNLWGPGTLVTVSS
VL: YDMTQTPASVSEPVGGTVTIKCQASEDIYKLLAWYQQKPGQPPKLLIYAASDLESGVPSRFKGRGSGTDYTLTISDLECADAATYYCQQAYTIGNIDNSFGGGTEVVVK
notes: Rabbit-derived clone; LEM construct: VH + rabbit IgG CH1 + human IgG1 CH2-CH3
B2: 9D7-2 (antibody, V domains shown)
VH: B1 VH with C49S
VL: B1 VL with C79A
B3: 1D10 (antibody, V domains shown)
VH: QEQLKESGGGLVQPGGSLTLSCKASGFDFNYYGVSWVRQAPGKGLEWIGYIYPAYHNTYYATWVNGRFTISSHNAQNTLYLQLNTLTAADTATYFCARDAGSTDYNLNLWGPGTLVTVSS
VL: DVVMTQTPASVEVAVGGTVTIKCQASEDIESYLAWYQQKPGQPPRLLIYEASKLASGVSSRFSGGGYGTDFTLTISGVECADAATYYCHQALTIGNVDNPFGGGGEVVVK
notes: as for B1
B4: 72F12 (antibody, V domains shown)
VH: B3 VH with T19K, Y31N, G49A, Y55F, T85S, T103V, L107F
VL: DVVMTQTPASVEVAVGGTVTIKCQASKNIDSNLAWYQQKPGQPPKQLIYAASTLASGVSSRFSGSGYGAEFTLTISGVECADAATYYCQQALTIGNVDNPFGGGSEVVVK
notes: as for B1
B5: 62E3 (antibody, V domains shown)
VH: B3 VH with T19K, Y31E, G49A, Y55F, S102T, L107F
VL: B3 VL with P8A, A9S, S10P, E12S, V13A, R45K, G65S, D70E, H89Q, G105S
notes: as for B1
B6: 9F7 (antibody, V domains shown)
VH: B3 VH with Y31N, A100T, L107F
VL: B3 VL with R45K, D70E, H89Q, I94V, G105S
notes: as for B1

Biological target: T1, human Trop-1 (EpCAM)
Assay: ELISA, similar to Table 24
Experimental: (§1) Purified antibodies were tested by ELISA to confirm their binding and affinity against human and cynomolgus Trop-2-His protein. Briefly, 96-well Maxisorp plates (Nunc) were coated with 100 μl/well of 0.5 μg/ml human (Kactus Cat #TRP-HM121, or Sino Biological, Cat #10428-HO8H) or cynomolgus Trop-2 protein (Kactus Cat #TRP-CM121, or Sino Biological, Cat #90893-CO8H) diluted in 1×PBS (GIBCO) overnight at 4° C. Plates were washed four times with 300 μl/well washing buffer (1×PBST, diluted from 20×PBST (Thermo Scientific) with distilled water)) and then blocked with 300 μl/well of blocking buffer (1×PBST/3% BSA (BSA, Sigma)) for 2 hours at RT on plate shaker at 100 rpm. Plates were washed and added with 100 μl/well of testing antibodies, which were serial diluted with assay buffer (PBST/1% BSA). The antibodies were incubated at room temperature for 2 hours on plate shaker at 100 rpm. Plates were washed. One hundred microliters (100 μl) of 1:10,000 diluted horseradish peroxidase (HRP) conjugated anti-hIgG antibody (Jackson Immuno Research) was added into each well and incubated at room temperature for 1 hour on plate shaker at 100 rpm. Plates were washed and added with 100 μl/well TMB substrate for color development in dark at room temperature for up to 10 minutes. After addition of 50 μl/well of stop solution (1N H₂SO₄), plates were read at 450 nm on a plate reader (SpectraMax M5). EC₅₀ values were calculated using Graphpad Prism. Sacituzumab govitecan, was used as positive control. Anti-HEL.hIgG1 was used as isotype control.
(§2) Similar assays were performed to test whether the exemplary antibodies of the present disclosure bind to human Trop-1 (EpCAM) or mouse Trop-2 (Kactus, Cat #TRP-MM121) or rat Trop-2 (kactus, Cat #TRP_RM121). No binding of the exemplary antibodies of the present disclosure to human Trop-1 (EpCAM) or mouse or rat Trop-2 has been detected.

Binder | binding result
B1 | no binding
B2 | no binding
B3 | no binding
B4 | no binding
B5 | no binding
B6 | no binding

Biological target: T2, mouse Trop-2
Assay: ELISA, similar to Table 24
Experimental: as §1, §2

Binder | binding result
B1 | no binding
B2 | no binding
B3 | no binding
B4 | no binding
B5 | no binding
B6 | no binding

Biological target: T3, rat Trop-2
Assay: ELISA, similar to Table 24
Experimental: as §1, §2

Binder | binding result
B1 | no binding
B2 | no binding
B3 | no binding
B4 | no binding
B5 | no binding
B6 | no binding

Biological target: T4, human Trop-2 expressed on cell surface
Assay: cell-based or functional assay

Binder | EC50 of ADCC (NFAT-CD16 reporter), MCF-7 | EC50 of ADCC (NFAT-CD16 reporter), MDA-MB-231
B1 | 0.28 nM | 0.09 nM
B2 | 0.23 nM | 0.11 nM
B3 | 0.28 nM | 0.04 nM
B4 | 0.16 nM | 0.07 nM
B5 | 0.4 nM | 0.04 nM
B6 | 0.18 nM | 0.03 nM

Biological target: T4, human Trop-2 expressed on cell surface
Assay: cell-based or functional assay
Remark: another data set of the same source

Binder | Internalization %, MCF-7, 0.25 µg/ml, 1 h | Internalization %, MCF-7, 0.25 µg/ml, 2 h | Internalization %, MCF-7, 0.25 µg/ml, 4 h | Internalization %, MCF-7, 0.5 µg/ml, 1 h | Internalization %, MCF-7, 0.5 µg/ml, 2 h | Internalization %, MCF-7, 0.5 µg/ml, 4 h
B1 | 42% | 75% | 69% | 46% | 60% | 65%
B2 | 29% | 42% | 57% | 28% | 42% | 52%
B3 | 30% | 56% | 49% | 44% | 54% | 65%
B4 | 21% | 37% | 47% | 24% | 39% | 48%
B5 | 23% | 39% | 45% | 21% | 41% | 40%
B6 | 2% | 31% | 36% | 29% | 44% | 49%

Biological target: T5, human Trop-2-His protein
Assay: ELISA, coated Trop-2 protein
Experimental: as §1

Binder | EC50
B1 | 0.017 nM
B2 | 0.02 nM
B3 | 0.016 nM
B4 | 0.013 nM
B5 | 0.018 nM
B6 | 0.033 nM

Biological target: T6, cynomolgus Trop-2-His protein
Assay: ELISA, coated Trop-2 protein
Experimental: as §1

Binder | EC50
B1 | 0.016 nM
B2 | 0.014 nM
B3 | 0.017 nM
B4 | 0.013 nM
B5 | 0.016 nM
B6 | 0.03 nM
